Experimental data: PMC4833398

Legend:
[1] = molecular target: 1VH8-scaffolded V1V2 from HIV-1 strain CAP256-SU (trimeric scaffold); experiment: crystal structure
[2] = molecular target: these trimeric scaffolded V1V2s (1VH8- and 4F2K-scaffolded), expressed and purified in GnTI- cells; experiment: SPR

“1VH8-scaffolded V1V2 from HIV-1 strain CAP256-SU (trimeric scaffold)” gave a stoichiometry N [1] of 3.

B1: bNAb PG9 (antibody, V domains shown)
VH: QRLVESGGGVVQPGSSLRLSCAASGFDFSRQGMHWVRQAPGQGLEWVAFIKYDGSEKYHADSVWGRLSISRDNSKDTLYLQMNSLRVEDTATYFCVREAGGPDYRNGYNYYDFYDGYYNYHYMDVWGKGTTVTVSS
VL: QSALTQPASVSGSPGQSITISCNGTSNDVGGYESVSWYQQHPGKAPKVVIYDVSKRPSGVSNRFSGSKSGNTASLTISGLQAEDEGDYYCKSLTSTRRRVFGTGTKLTVL
In the case of B1, the Kd [2] is reported as 0.024 to 0.5 µM.

B2: bNAb CH01 (antibody, V domains shown)
VH: EVQLVESGANVVRPGGSLRLSCKASGFIFENFGFSWVRQAPGKGLQWVAGLNWNGGDTRYADSVKGRFRMSRDNSRNFVYLDMDKVGVDDTAFYYCARGTDYTIDDAGIHYQGSGTFWYFDLWGRGTLVSVSS
VL: EIVLAQSPGTLSLSPGERATLSCRASHNVHPKYFAWYQQKPGQSPRLLIYGGSTRAAGIPGKFSGSGSGTDFTLTISRVDPEDFAVYYCQQYGGSPYTFGQGTKVEIK
For B2, the Kd [2] was 20 to 50 µM.
